T1: mouse IL5 (mouse, UniProt P04401 21-133)
T1 sequence (looked up): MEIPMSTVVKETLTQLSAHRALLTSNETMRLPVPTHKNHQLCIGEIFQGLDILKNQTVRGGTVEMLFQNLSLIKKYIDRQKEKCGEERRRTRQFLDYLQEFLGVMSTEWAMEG

B1: bivalent biepitope IL5 nanobody HuNb66-HuNb21 expressed by yeast (VHH)
chain: EVQLQESGGGLVQPGGSLRLSCAASGYTVSSNMGWFRQAPGKEREGVAAIYPDGATYYADSVKGRFTISRDNSENTLYLQMNSLRAEDTAMYYCAADLAFNGLGTLALHGYWGQGTLVTVSSGGGGSGGGGSGGGGSGGGGSEVQLQESGGGLVQPGGSLRLSCAASGYPYSGDYCMGWFRQAPGKEREGVAAFYTGGGSTYYADSVKGRFTISRDNSKNTLYLQMNSLRAEDTAVYYCAADPWSVYGGSCGVKDPNPKAFNYWGQGTLVTVSS
notes: also called bivalent biepitopic antibody HuNb66-HuNb21
B2: Nb21 (VHH)
VHH: QVQLQESGGGSAQAGGSLKLSCVVSGYPYSGDYCMGWFRQAPGKEREGVAAFYTGGGSTYYADSVKGRFTTSQDNATSTFHLQMNSLKPEDTATYYCAADPWSVYGGSCGVKDPNPKAFNYWGQGTQVTVSS
notes: Camel nanobody, prokaryotic expression from the pMECS vector; also called Nb21-biotin
B3: Nb25 (VHH)
VHH: QVQLQESGGGSVQAGGSLRLSCAASEYTYSRYCMGWFRQVPGKEREGVATIDSDGSTSYADSVKGRFTISKDNAKNTLYLQMNSLKPEDTAMYYCAARYFYIATTGLRPCGEYEYNYWGQGTQVTVSS
notes: Camel nanobody, prokaryotic expression from the pMECS vector; It was detected with anti-HA antibody
B4: Nb66 (VHH)
VHH: QVQLQESGGGSVQAGGSLRLSCAASGYTVSSNMGWFRQAPGKEREGVAAIYPDGATYYADSVKGRFTISQDNAENTVYLQMNSLKPEDTAMYYCAADLAFNGLGTLALHGYWGQGTQVTVSS
notes: as for B3
B5: Nb92 (VHH)
VHH: QVQLQESGGGLVQPGGSLRLSCAASGFTFSNYYMSWVRQAPGKGLEWVSSISSDGSNTYYEDSVKGRFTISRDNANNTLYLQMNSLKSEDTALYHCATDLYDDSWYDHWGQGTQVTVSS
notes: as for B3

Experiments:
human IL5 [1] = target: T2, human IL5 (human, UniProt P05113 20-134, biotinylated (IL5-biotin) in Examples 2, 5, 6, 9 and 11; site not stated); assay: cell-based or functional assay
human IL5 [2] = target: T2, human IL5; assay: Flow cytometry, blocking of IL5-biotin binding to HEK293F cells expressing IL5R
Description: Specifically, The HEK293F stable cells with high expression of IL5R were centrifuged at 1000 rpm for 5 min, and the supernatant was discarded. The cells were washed once with 5 mL PBS and then resuspended with 2 mL PBS. After counting, the cells were divided into a 96-well plate with 3×10⁵ cells per well. […] After centrifugation at 4° C. at 3000 rpm, 200 μL PBS was added to each well, and then centrifuged at 3000 rpm and 4° C. for 4 min after resuspension. The diluted SA-PE antibody (diluted at 0.3:100) was added and incubated at 4° C. for 20 min. After centrifugation at 4° C. for 4 min at 3000 rpm, the supernatant was discarded, and 200 μL PBS was added to each well to wash the cells twice. Then 200 μL PBS was added to resuspend the cells, transfer to a flow tube, and the PE signal of each sample was detected by flow cytometry.

human IL5 [3] = target: T2, human IL5; assay: BLI (Fortebio Red96), 1:1 global fit
Description: Probes coated with Protein A were used to capture antibody, capture time 180 s; binding to gradient diluted antigen, binding time 300 s; dissociation time 360 s; 10 mM glycine (pH 1.7) was used to regenerate 3 times, each time for 5 s. Fortebio Analysis version 9.0 was used for the analysis, the 1:1 binding model Global mode was fitted, and the binding rate (Kon), the dissociation rate (Kdis) and the dissociation constant KD were calculated.

mouse IL5 = target: T1, mouse IL5; assay: ELISA, coated IL5, anti-HA detection
Description: After washing 5 times with PBST, 300 μL 1% BSA was added to each well for blocking at room temperature for 2 hours. […] Then the plate was washed for 5 times with PBST, 100 μL diluted mouse anti-HA antibody (1:2000 dilution) was added and incubated for 1 hour at 37° C. After washing 5 times with PBST, 100 μL diluted alkaline phosphatase modified anti-mouse antibody (1:2000 dilution) was added and incubated at 37° C. for 1 hour. Then the plate was washed with PBST for 5 times, developing solution was added, and the absorption value was measured at 405 nm wavelength by a microplate reader.

Row | Binder | IC50 of inhibition of the proliferation of TF-1 cells induced by IL5 (CCK8, OD450) (human IL5 [1]) [nM] | IC50 (human IL5 [2]) [µg/mL] | Kd (human IL5 [3]) [nM] | binding result (mouse IL5)
1 | B1 | 0.0512 | 0.841 | – | –
2 | B2 | – | – | < 1 | no binding
3 | B3 | – | – | < 1 | no binding
4 | B4 | – | – | < 1 | no binding
5 | B5 | – | – | < 1 | no binding

Reference: US20230399395A1 (SHANGHAI NOVAMAB BIOPHARMACEUTICALS, published 2023)
